Results on two molecules are retold here after publication PMC12574954 (2025).

For this test, the target named is T1, thermolysin-generated VSV Gect (aa residues 1-422) (Vesicular stomatitis virus, UniProt P0C2X0 17-438).
T1 chain: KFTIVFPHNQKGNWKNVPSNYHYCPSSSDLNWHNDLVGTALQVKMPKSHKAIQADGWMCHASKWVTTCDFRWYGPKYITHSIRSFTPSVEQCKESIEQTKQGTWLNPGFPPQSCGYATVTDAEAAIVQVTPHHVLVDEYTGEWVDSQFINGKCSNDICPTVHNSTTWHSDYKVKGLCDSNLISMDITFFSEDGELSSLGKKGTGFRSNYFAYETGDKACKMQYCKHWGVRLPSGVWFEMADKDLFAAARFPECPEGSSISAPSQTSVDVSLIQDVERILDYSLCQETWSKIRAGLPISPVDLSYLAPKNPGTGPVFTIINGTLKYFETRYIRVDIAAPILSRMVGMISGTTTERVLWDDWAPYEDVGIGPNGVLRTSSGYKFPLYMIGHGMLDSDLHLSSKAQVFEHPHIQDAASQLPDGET
As to the kind of experiment: BLI.

B1: recombinant Fab 8G5F11 (Fab, V domains shown)
VH: DVQLQESGPDLVKPSQSLSLTCTVTGYSITSGYSWHWNRQFPGNKLEWMGYIHYSGLTNYNPSLKSRISITRHTSKNQFFLQLNSVTTEDTATYYCVRGGYDGRDYYAMDFWGQGTSVTVSS
VL: DIVMTQSHKFMSTSVGDRVSITCKASQDVDNDVAWYQQKPGQSPKLLIYWASTRHTGVPDRFTGSGSGTDFTLTISDVQSEDLSDYFCQQYSSYPFTFGGGTRLEIK
In the case of B1, binding was put at a Kd of 0.72 nM.

B2: monoclonal antibody 8G5F11 (antibody, V domains shown)
VH: B1 VH
VL: B1 VL
In the case of B2, the Kd (as a rule, a measure of binding affinity in units of concentration) stood at 1.01 nM.
